Results on 2 substances are retold here after paper PMC9965858.

The stoichiometry N is the number of molecules, sites or subunits per partner or assembly.

For assay [1], the target named is Dengue virus type 2 non-structural protein 1 (NS1) produced by DENV2-infected A549 cells (Dengue virus type 2) (UniProt P14340). Nature of the assay: SDS-PAGE of samples heated or not heated, then Western blot. Background: Immunoblotting shows a protein as a band on a membrane.
In assay [2] the target is recombinant DENV2-NS1^V5-tag (Dengue virus type 2) (UniProt P14340). Described as above.

“Dengue virus type 2 non-structural protein 1 (NS1) produced by DENV2-infected A549 cells (from UniProt P14340) (natural protein)” registered a stoichiometry N in assay [1] of 2.
With “recombinant DENV2-NS1^V5-tag (from UniProt P14340 776-1127) (natural protein)”, the stoichiometry N in assay [2] is 2.
